# T1: glucocorticoid receptor (GR) (Rattus norvegicus) (UniProt P06536)
# T1 sequence: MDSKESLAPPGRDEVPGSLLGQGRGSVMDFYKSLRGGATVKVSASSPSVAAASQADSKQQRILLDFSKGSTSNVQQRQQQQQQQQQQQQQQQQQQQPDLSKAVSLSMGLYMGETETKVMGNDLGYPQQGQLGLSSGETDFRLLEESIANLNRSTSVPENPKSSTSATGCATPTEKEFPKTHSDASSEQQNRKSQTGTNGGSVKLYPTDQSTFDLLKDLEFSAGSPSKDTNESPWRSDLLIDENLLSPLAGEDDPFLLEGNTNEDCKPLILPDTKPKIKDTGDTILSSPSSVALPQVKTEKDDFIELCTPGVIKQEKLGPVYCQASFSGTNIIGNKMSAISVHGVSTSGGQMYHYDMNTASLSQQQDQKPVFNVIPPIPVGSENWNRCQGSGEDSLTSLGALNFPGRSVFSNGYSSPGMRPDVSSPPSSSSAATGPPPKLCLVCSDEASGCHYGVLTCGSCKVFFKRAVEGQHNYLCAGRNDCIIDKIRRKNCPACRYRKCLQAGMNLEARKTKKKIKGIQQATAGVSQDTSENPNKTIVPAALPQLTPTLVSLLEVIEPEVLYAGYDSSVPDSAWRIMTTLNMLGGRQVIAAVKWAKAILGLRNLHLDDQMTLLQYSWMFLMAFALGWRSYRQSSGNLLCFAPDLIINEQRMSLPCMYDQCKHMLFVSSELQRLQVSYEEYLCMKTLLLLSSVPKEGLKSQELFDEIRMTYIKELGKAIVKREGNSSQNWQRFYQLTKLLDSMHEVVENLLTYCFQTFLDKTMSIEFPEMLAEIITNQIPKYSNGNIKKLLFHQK
# T2: androgen receptor (AR) (Rattus norvegicus) (UniProt P15207)
# T2 sequence: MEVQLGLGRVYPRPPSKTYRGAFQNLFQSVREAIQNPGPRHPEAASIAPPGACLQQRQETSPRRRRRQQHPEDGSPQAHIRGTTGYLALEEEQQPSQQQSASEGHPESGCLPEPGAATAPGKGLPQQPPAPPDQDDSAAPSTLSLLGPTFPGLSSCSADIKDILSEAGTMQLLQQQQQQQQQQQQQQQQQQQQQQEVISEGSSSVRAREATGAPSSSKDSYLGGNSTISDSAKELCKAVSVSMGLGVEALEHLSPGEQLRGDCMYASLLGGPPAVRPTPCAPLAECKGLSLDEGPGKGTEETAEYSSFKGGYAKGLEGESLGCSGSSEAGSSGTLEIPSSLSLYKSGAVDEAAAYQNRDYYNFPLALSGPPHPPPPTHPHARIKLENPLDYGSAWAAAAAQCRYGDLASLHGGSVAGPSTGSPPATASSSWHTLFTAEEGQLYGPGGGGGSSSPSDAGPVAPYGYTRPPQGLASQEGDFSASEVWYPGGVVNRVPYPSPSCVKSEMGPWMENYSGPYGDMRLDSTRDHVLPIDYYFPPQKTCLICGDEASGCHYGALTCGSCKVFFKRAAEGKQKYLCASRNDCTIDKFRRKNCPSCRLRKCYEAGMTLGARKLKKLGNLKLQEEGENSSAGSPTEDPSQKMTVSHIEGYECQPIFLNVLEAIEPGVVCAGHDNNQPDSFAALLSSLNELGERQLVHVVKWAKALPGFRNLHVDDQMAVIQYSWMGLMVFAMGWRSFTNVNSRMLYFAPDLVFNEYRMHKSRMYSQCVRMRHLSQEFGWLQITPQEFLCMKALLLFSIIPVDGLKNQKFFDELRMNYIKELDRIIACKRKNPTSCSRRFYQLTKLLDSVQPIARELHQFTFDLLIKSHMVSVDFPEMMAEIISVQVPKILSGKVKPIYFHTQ
# T3: androgen receptor (hAR) wild type (Homo sapiens) (UniProt P10275)
# T3 sequence: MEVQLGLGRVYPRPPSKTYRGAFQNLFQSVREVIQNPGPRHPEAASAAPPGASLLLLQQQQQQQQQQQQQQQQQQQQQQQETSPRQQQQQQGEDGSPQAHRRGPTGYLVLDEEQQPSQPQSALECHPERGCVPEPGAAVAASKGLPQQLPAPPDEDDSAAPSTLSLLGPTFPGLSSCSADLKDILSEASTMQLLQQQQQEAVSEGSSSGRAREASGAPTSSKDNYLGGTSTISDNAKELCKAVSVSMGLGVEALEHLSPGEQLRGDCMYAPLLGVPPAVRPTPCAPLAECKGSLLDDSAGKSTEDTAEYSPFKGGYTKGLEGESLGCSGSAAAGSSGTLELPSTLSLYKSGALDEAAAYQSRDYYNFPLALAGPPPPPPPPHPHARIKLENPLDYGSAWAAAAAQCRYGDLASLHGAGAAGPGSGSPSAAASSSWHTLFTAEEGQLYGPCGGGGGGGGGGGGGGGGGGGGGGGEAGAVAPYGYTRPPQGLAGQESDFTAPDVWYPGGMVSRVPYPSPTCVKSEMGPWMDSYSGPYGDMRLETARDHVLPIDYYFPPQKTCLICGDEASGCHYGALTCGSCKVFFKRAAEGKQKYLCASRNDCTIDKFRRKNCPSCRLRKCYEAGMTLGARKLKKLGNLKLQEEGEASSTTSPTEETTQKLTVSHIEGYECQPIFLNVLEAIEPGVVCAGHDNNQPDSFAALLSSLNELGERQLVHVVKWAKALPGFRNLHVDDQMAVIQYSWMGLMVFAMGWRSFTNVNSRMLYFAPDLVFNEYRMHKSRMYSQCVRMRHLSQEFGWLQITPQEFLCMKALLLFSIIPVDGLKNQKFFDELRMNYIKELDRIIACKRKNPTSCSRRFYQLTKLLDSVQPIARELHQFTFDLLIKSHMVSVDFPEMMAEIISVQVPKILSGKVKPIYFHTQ
# T4: androgen receptor V865L V865L (Homo sapiens) (UniProt P10275)
# T4 sequence: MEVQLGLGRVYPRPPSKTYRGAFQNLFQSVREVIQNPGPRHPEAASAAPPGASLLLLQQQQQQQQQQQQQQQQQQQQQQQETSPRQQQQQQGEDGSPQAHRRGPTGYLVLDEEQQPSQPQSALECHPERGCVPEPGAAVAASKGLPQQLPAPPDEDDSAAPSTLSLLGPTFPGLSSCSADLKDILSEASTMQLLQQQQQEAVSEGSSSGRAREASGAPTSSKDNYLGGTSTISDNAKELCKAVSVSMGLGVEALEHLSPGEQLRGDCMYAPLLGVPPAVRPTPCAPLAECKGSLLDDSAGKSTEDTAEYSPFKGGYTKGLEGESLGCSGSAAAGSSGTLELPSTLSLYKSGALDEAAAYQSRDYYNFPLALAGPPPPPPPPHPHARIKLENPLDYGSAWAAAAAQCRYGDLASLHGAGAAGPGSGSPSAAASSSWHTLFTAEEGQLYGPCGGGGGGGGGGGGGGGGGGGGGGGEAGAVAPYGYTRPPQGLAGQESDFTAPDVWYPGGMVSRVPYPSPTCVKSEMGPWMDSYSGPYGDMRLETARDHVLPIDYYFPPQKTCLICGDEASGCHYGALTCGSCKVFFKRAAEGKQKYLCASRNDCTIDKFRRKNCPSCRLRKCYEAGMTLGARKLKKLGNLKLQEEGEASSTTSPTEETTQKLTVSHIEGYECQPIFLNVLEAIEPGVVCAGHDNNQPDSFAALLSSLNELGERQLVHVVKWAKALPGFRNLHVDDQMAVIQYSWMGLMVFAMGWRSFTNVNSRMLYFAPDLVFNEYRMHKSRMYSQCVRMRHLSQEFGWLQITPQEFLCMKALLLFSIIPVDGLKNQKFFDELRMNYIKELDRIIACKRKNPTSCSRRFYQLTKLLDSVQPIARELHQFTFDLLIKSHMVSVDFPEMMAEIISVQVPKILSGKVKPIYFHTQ
# B1: probasin -158 to +28 (dsDNA)
# DNA 1: GGGCATTGTCCATGCCTAGTAAAGTACTCCAAGAACCTATTTGTATACTAGATGACACAATGTCAATGTCTGTGTACAACTGCCAACTGGGATGCAAGACACTGCCCATGCCAATCATCCTGAAAAGCAGCTATAAAAAGCAGGAAGCTACTCTGCACCTTGTCAGTGAGGTCCAGATACCTACAG
# DNA 2: CTGTAGGTATCTGGACCTCACTGACAAGGTGCAGAGTAGCTTCCTGCTTTTTATAGCTGCTTTTCAGGATGATTGGCATGGGCAGTGTCTTGCATCCCAGTTGGCAGTTGTACACAGACATTGACATTGTGTCATCTAGTATACAAATAGGTTCTTGGAGTACTTTACTAGGCATGGACAATGCCC
# B2: probasin -244 to -96 (dsDNA)
# DNA 1: ATGATAGCATCTTGTTCTTAGTCTTTTTCTTAATAGGGACATAAAGCCCACAAATAAAAATATGCCTGAAGAATGGGACAGGCATTGGGCATTGTCCATGCCTAGTAAAGTACTCCAAGAACCTATTTGTATACTAGATGACACAATGT
# DNA 2: ACATTGTGTCATCTAGTATACAAATAGGTTCTTGGAGTACTTTACTAGGCATGGACAATGCCCAATGCCTGTCCCATTCTTCAGGCATATTTTTATTTGTGGGCTTTATGTCCCTATTAAGAAAAAGACTAAGAACAAGATGCTATCAT
# Legend:
# [1] = target: T1, glucocorticoid receptor (GR) (Rattus norvegicus); assay: cell_activity; conditions: DEX, CAT reporter
# [2] = target: androgen receptor V865M V865M (Homo sapiens) (UniProt P10275); assay: cell_activity; conditions: 10 nM DHT; background 4.2
# [3] = target: T2, androgen receptor (AR) (Rattus norvegicus); assay: cell_activity; conditions: DHT, CAT reporter
# [4] = target: T3, androgen receptor (hAR) wild type (Homo sapiens); assay: cell_activity; conditions: 10 nM DHT; background 4.2
# [5] = target: T4, androgen receptor V865L V865L (Homo sapiens); assay: cell_activity; conditions: 10 nM DHT; background 4.2
# [6] = target: T5, glucocorticoid receptor (GR) (Rattus norvegicus, UniProt P06536 P06536:1-795); assay: cell_activity; DEX, CAT reporter; conditions: chain copies: 2
# Description: (§1) Cells which had undergone transient transfection were harvested in phosphate buffered saline containing 1 mM EDTA. After centrifugation at 2000×g for 4 min at room temperature, cells were lysed in 0.1M Tris-HCl/0.1% Triton X-100, pH 7.8 for 15 min on ice. Insoluble material was removed by centrifugation at 14,500×g, 15 minutes, at 4° C. The CAT activity in the cell extract was determined by a two-phase fluor diffusion assay (Nachtigal et al., 1989). Also, the DNA was isolated from the insoluble material and 2 µg samples were placed in duplicate on nitrocellulose membrane via slot-blot apparatus and probed with ^32P-labelled CAT insert DNA. Autoradiograms were analyzed by densitometry and all CAT activity data was normalized for transfection efficiency. For transgenic mice, a total cellular extract of each tissue was assayed for CAT activity.
# (§2) Due to the lack of appropriate cell lines containing either androgen receptors and/or prostatic in origin, a range of cell lines was tested. The human prostatic cells LNCaP would express and androgen regulate PB-CAT-while HeLa, prostatic DU-145 and PC-3 cells required co-transfection of an androgen receptor expression vector for androgen regulation. […]
# androgen receptor (AR) [7] = target: T6, androgen receptor (AR) (Rattus norvegicus, UniProt P15207 P15207:1-902); assay: cell_activity; DHT, CAT reporter; conditions: chain copies: 2
# Description: as §1, §2
# androgen receptor (AR) [8] = target: T6, androgen receptor (AR); assay: cell_activity; DHT, TK promoter CAT reporter; conditions: chain copies: 2
# Description: as §1, §2
# [9] = target: T5, glucocorticoid receptor (GR); assay: cell_activity; DEX, TK promoter CAT reporter; conditions: chain copies: 2
# Description: as §1, §2
molecule,measurement,setting,value
ATAGCATCTTGTTCTTAGTGGGCATTGTCCATGCCTAGTAAAGTACTCCAAGAACCTATTTGTATACTAGATGACACAATGTCAATGTCTGTGTACAACTGCCAACTGGGATGCAAGACACTGCCCATGCCAATCATCCTGAAAAGCAGCTATAAAAAGCAGGAAGCTACTCTGCACCTTGTCAGTGAGGTCCAGATACCTACAG (double strand) [ARE-1 adjacent to probasin -158 to +28],activity (fold induction),[1],21
TAGTCATCATGTTTAAACATCTACCATTCCAGTTAAGAAAATATGATAGCATCTTGTTCTTAGTCTTTTTCTTAATAGGGACATAAAGCCCACAAATAAAAATATGCCTGAAGAATGGGACAGGCATTGGGCATTGTCCATGCCTAGTAAAGTACTCCAAGAACCTATTTGTATACTAGATGACACAATGTCAATGTCTGTGTACAACTGCCAACTGGGATGCAAGACACTGCCCATGCCAATCATCCTGAAAAGCAGCTATAAAAAGCAGGAAGCTACTCTGCACCTTGTCAGTGAGGTCCAGATACCTACAG (double strand) [probasin -286 to +28],activity (dpm/min/mg protein),[2],42
ATGATAGCATCTTGTTCTTAGTCTTTTTCTTAATAGGGACATAAAGCCCACAAATAAAAATATGCCTGAAGAATGGGACAGGCATTGGGCATTGTCCATGCCTAGTAAAGTACTCCAAGAACCTATTTGTATACTAGATGACACAATGTCAATGTCTGTGTACAACTGCCAACTGGGATGCAAGACACTGCCCATGCCAATCATCCTGAAAAGCAGCTATAAAAAGCAGGAAGCTACTCTGCACCTTGTCAGTGAGGTCCAGATACCTACAG (double strand) [probasin -244 to +28],activity (fold induction),[3],49
same,activity (fold induction),[1],9
TAGTCATCATGTTTAAACATCTACCATTCCAGTTAAGAAAATATGATAGCATCTTGTTCTTAGTCTTTTTCTTAATAGGGACATAAAGCCCACAAATAAAAATATGCCTGAAGAATGGGACAGGCATTGGGCATTGTCCATGCCTAGTAAAGTACTCCAAGAACCTATTTGTATACTAGATGACACAATGTCAATGTCTGTGTACAACTGCCAACTGGGATGCAAGACACTGCCCATGCCAATCATCCTGAAAAGCAGCTATAAAAAGCAGGAAGCTACTCTGCACCTTGTCAGTGAGGTCCAGATACCTACAG (double strand) [probasin -286 to +28 ARE2*],activity (dpm/min/mg protein),[4],177
same,activity (dpm/min/mg protein),[5],122
same,activity (dpm/min/mg protein),[2],49
B1,activity,[6],1.2 fold induction
same,activity,androgen receptor (AR) [7],1.4 fold induction
B2,activity,androgen receptor (AR) [8],61 fold induction
same,activity,[9],96 fold induction
